# System: Escherichia coli TOP10
# Assay: shrunken log2 fold change of peptide-encoding DNA abundance (4.5 h post-induction vs induction); higher = less antimicrobial activity (less host growth inhibition)
# Settings: time post-induction: 4.5 h; library: site-saturation at positions 5, 18, 19, 20
# 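Note: peptides expressed intracellularly from a pBAD plasmid library in pooled LB shake-flask culture, induced with 0.3% L-arabinose, DNA abundance read by NGS, three biological replicates, DESeq2 with apeglm shrinkage.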
row,Sequence,shrunken log2 fold change
1,RRIRVRPPRLPRPRPRPVMQPRP,-0.0429
2,RRIRHRPPRLPRPRPRPKFIPRP,-0.192
3,RRIRNRPPRLPRPRPRPQHPPRP,-0.325
4,RRIRGRPPRLPRPRPRPMASPRP,0.176
5,RRIRFRPPRLPRPRPRPMMMPRP,-0.101
6,RRIRFRPPRLPRPRPRPTPRPRP,0.803
7,RRIRQRPPRLPRPRPRPCYGPRP,-0.0796
8,RRIRGRPPRLPRPRPRPTDAPRP,1.14
9,RRIRWRPPRLPRPRPRPWDQPRP,0.00408
10,RRIRDRPPRLPRPRPRPYMSPRP,-0.00753
11,RRIRARPPRLPRPRPRPGHQPRP,0.304
12,RRIRYRPPRLPRPRPRPYSVPRP,-0.0202
13,RRIRDRPPRLPRPRPRPPVEPRP,-0.0332
14,RRIRARPPRLPRPRPRPKQAPRP,0.147
15,RRIRCRPPRLPRPRPRPWQAPRP,0.204
16,RRIRERPPRLPRPRPRPMQMPRP,-0.254
17,RRIRNRPPRLPRPRPRPYATPRP,-0.145
18,RRIRWRPPRLPRPRPRPKAFPRP,-0.0585
19,RRIRGRPPRLPRPRPRPGFNPRP,0.235
20,RRIRLRPPRLPRPRPRPGAHPRP,0.057
21,RRIRNRPPRLPRPRPRPYIHPRP,-0.387
22,RRIRIRPPRLPRPRPRPEQEPRP,0.0276

row,Sequence,shrunken log2 fold change
1,RRIRERPPRLPRPRPRPKSSPRP,-0.0505
2,RRIRQRPPRLPRPRPRPAIYPRP,-0.0621
3,RRIRKRPPRLPRPRPRPHMPPRP,-0.175
4,RRIRFRPPRLPRPRPRPGYYPRP,-0.195
5,RRIRQRPPRLPRPRPRPLMCPRP,-0.0972
6,RRIRYRPPRLPRPRPRPAWPPRP,0.363
7,RRIRMRPPRLPRPRPRPSWTPRP,-0.0874
8,RRIRNRPPRLPRPRPRPEFRPRP,-0.107
9,RRIRRRPPRLPRPRPRPAQCPRP,0.152
10,RRIRRRPPRLPRPRPRPDSFPRP,-0.0228
11,RRIRWRPPRLPRPRPRPRIPPRP,0.0219
12,RRIRERPPRLPRPRPRPRAFPRP,0.189
13,RRIRLRPPRLPRPRPRPGCQPRP,-0.00705
14,RRIRPRPPRLPRPRPRPNGQPRP,0.097
15,RRIRVRPPRLPRPRPRPFRIPRP,-0.26
16,RRIRLRPPRLPRPRPRPFAYPRP,-0.163
17,RRIRDRPPRLPRPRPRPSMHPRP,-0.176
18,RRIRLRPPRLPRPRPRPAFPPRP,0.0371
19,RRIRCRPPRLPRPRPRPGTNPRP,-0.15
20,RRIRMRPPRLPRPRPRPVSTPRP,1.96
21,RRIRNRPPRLPRPRPRPHPHPRP,-0.576
22,RRIRNRPPRLPRPRPRPCWKPRP,-0.0657

row,Sequence,shrunken log2 fold change
1,RRIRMRPPRLPRPRPRPMNMPRP,-0.344
2,RRIRRRPPRLPRPRPRPRCWPRP,0.486
3,RRIRCRPPRLPRPRPRPDPKPRP,0.0617
4,RRIRPRPPRLPRPRPRPLYEPRP,-0.303
5,RRIRIRPPRLPRPRPRPPVRPRP,0.172
6,RRIRYRPPRLPRPRPRPWSGPRP,-0.184
7,RRIRIRPPRLPRPRPRPFVEPRP,-0.37
8,RRIRLRPPRLPRPRPRPFNSPRP,-0.431
9,RRIRKRPPRLPRPRPRPFKRPRP,-0.00663
10,RRIRCRPPRLPRPRPRPWWIPRP,-0.655
11,RRIRWRPPRLPRPRPRPDHFPRP,-0.0288
12,RRIRYRPPRLPRPRPRPSIHPRP,-0.722
13,RRIRSRPPRLPRPRPRPNNCPRP,-0.186
14,RRIRFRPPRLPRPRPRPAIAPRP,0.0519
15,RRIRYRPPRLPRPRPRPLMEPRP,-0.318
16,RRIRHRPPRLPRPRPRPSHVPRP,-0.166
17,RRIRERPPRLPRPRPRPDRFPRP,-0.01
18,RRIRSRPPRLPRPRPRPNCYPRP,-0.0528
19,RRIRPRPPRLPRPRPRPAWTPRP,0.492
20,RRIRCRPPRLPRPRPRPHTTPRP,-0.716
21,RRIRGRPPRLPRPRPRPHPYPRP,0.0786
22,RRIRKRPPRLPRPRPRPGICPRP,0.0428

row,Sequence,shrunken log2 fold change
1,RRIRGRPPRLPRPRPRPSCVPRP,0.499
2,RRIRKRPPRLPRPRPRPGFGPRP,1.35
3,RRIRARPPRLPRPRPRPNLIPRP,1.17
4,RRIRHRPPRLPRPRPRPDFYPRP,-0.609
5,RRIRDRPPRLPRPRPRPTACPRP,0.388
6,RRIRIRPPRLPRPRPRPGDQPRP,-0.0693
7,RRIRQRPPRLPRPRPRPSPEPRP,-0.0086
8,RRIRCRPPRLPRPRPRPHGKPRP,-0.15
9,RRIRVRPPRLPRPRPRPTYGPRP,-0.838
10,RRIRDRPPRLPRPRPRPAMYPRP,-0.0257
11,RRIRIRPPRLPRPRPRPHGKPRP,-0.326
12,RRIRRRPPRLPRPRPRPHNYPRP,0.103
13,RRIRERPPRLPRPRPRPTHQPRP,-0.135
14,RRIRIRPPRLPRPRPRPCKSPRP,-0.133
15,RRIRSRPPRLPRPRPRPPLNPRP,0.0261
16,RRIRNRPPRLPRPRPRPWCRPRP,-0.525
17,RRIRQRPPRLPRPRPRPMYYPRP,0.0048
18,RRIRMRPPRLPRPRPRPLQTPRP,3.06
19,RRIRMRPPRLPRPRPRPWDHPRP,0.0477
20,RRIRFRPPRLPRPRPRPFNVPRP,-0.0431
21,RRIRCRPPRLPRPRPRPKTDPRP,-0.0884
22,RRIRSRPPRLPRPRPRPGQHPRP,0.178

row,Sequence,shrunken log2 fold change
1,RRIRARPPRLPRPRPRPHMLPRP,-0.196
2,RRIRERPPRLPRPRPRPKLRPRP,-0.0804
3,RRIRNRPPRLPRPRPRPIWGPRP,-0.0075
4,RRIRHRPPRLPRPRPRPDKWPRP,-0.395
5,RRIRVRPPRLPRPRPRPSLHPRP,-0.415
6,RRIRHRPPRLPRPRPRPEISPRP,0.0458
7,RRIRGRPPRLPRPRPRPGSKPRP,0.0737
8,RRIRGRPPRLPRPRPRPEKIPRP,0.672
9,RRIRHRPPRLPRPRPRPRSRPRP,-0.132
10,RRIRVRPPRLPRPRPRPPCQPRP,0.0844
11,RRIRIRPPRLPRPRPRPIGDPRP,-0.0264
12,RRIRCRPPRLPRPRPRPCPVPRP,-0.28
13,RRIRERPPRLPRPRPRPWDAPRP,-0.379
14,RRIRHRPPRLPRPRPRPTKKPRP,-0.0507
15,RRIRPRPPRLPRPRPRPFVKPRP,-0.133
16,RRIRQRPPRLPRPRPRPYATPRP,-0.326
17,RRIRWRPPRLPRPRPRPFCNPRP,-0.24
18,RRIRARPPRLPRPRPRPCCHPRP,-0.454
19,RRIRHRPPRLPRPRPRPTNMPRP,1.96
20,RRIRYRPPRLPRPRPRPQSSPRP,-0.687
21,RRIRKRPPRLPRPRPRPRMGPRP,0.149

# Reference: the supplement of paper PMC9112550, “Optimization of the antimicrobial peptide Bac7 by deep mutational scanning” (BMC Biology, 2022)
